Test results: doi:10.1101/2021.08.09.455701 (bioRxiv, 2021)

What was measured:
[1] = target: RNase J (His-tagged, wild type) (Helicobacter pylori) (UniProt P56185); experiment: AUC
[2] = target: RNase J D185A (His-tagged) (Helicobacter pylori) (UniProt P56185); experiment: AUC
[3] = target: RNase J K649Q (His-tagged) (Helicobacter pylori) (UniProt P56185); experiment: AUC
[4] = target: RNase J K649A (His-tagged) (Helicobacter pylori) (UniProt P56185); experiment: AUC
[5] = target: the molecule itself; experiment: crystal structure

RhpA (His-tagged) (from UniProt O25029 1-492) (enzyme)
stoichiometry N [1]: 1 RNase J:RhpA

RNase J D185A (His-tagged) (from UniProt P56185 1-689) (enzyme)
stoichiometry N [2]: 2

RNase J K649Q (His-tagged) (from UniProt P56185 1-689) (enzyme)
stoichiometry N [3]: 2

RNase J (His-tagged, wild type) (from UniProt P56185 1-689) (enzyme)
percent of the protein as dimer [1]: 40% | percent of the protein as monomer [1]: 60% | stoichiometry N [1]: 2

RNase J K649A (His-tagged) (from UniProt P56185 1-689) (enzyme)
stoichiometry N [4]: 2

B1: RNase J residues 139-691 (crystallised construct) (domain or fragment, H. pylori strain 26695, UniProt P56185 137-689, looked up)
chain: SKASVKITPLGGLGEIGGNMMVIETPKSAIVIDAGMSFPKEGLFGVDILIPDFSYLHQIKDKIAGIIITHAHEDHIGATPYLFKELQFPLYGTPLSLGLIGSKFDEHGLKKYRSYFKIVEKRCPISVGEFIIEWIHITHSIIDSSALAIQTKAGTIIHTGDFKIDHTPVDNLPTDLYRLAHYGEKGVMLLLSDSTNSHKSGTTPSESTIAPAFDTLFKEAQGRVIMSTFSSNIHRVYQAIQYGIKYNRKIAVIGRSMEKNLDIARELGYIHLPYQSFIEANEVAKYPDNEILIVTTGSQGETMSALYRMATDEHRHISIKPNDLVIISAKAIPGNEASVSAVLNFLIKKEAKVAYQEFDNIHVSGHAAQEEQKLMLRLIKPKFFLPVHGEYNHVARHKQTAISCGVPEKNIYLMEDGDQVEVGPAFIKKVGTIKSGKSYVDNQSNLSIDTSIVQQREEVASAGVFVATIFVNKNKQALLESSQFSSLGLVGFKDEKPLIKEIQGGLEVLLKSSNAEILNNPKKLEDHTRNFIRKALFKKFRKYPAIICHAHSF
binding result [5]: binds
